Measurements: patent publication US20070020252A1, “Modified protease inhibitors” (priority 2003, published 2007)
Where no end group is shown, it is not given here.

T1: human neutrophil elastase (HNE) (Homo sapiens, UniProt P08246)
T1 sequence (P08246 30-267): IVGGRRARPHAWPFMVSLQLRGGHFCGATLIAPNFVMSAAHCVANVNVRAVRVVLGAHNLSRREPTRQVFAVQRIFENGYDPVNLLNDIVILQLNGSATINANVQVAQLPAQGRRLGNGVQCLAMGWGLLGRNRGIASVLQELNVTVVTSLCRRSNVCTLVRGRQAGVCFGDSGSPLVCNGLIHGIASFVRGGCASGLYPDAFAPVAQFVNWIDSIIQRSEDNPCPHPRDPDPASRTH

T2: human neutrophil elastase (human, UniProt P08246 30-247)
T2 construct: also called hNE; HNE
T2 sequence (looked up): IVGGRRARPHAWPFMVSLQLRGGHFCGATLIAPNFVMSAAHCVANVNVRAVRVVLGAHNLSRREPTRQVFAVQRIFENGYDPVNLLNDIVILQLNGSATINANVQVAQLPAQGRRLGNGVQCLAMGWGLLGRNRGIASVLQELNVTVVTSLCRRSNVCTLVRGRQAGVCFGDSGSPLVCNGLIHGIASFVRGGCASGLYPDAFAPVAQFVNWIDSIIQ


What was measured:
[1] = Pharmacokinetic study in mice: plasma clearance of 125I-labeled protein, SEC of plasma; assay type: in vivo; settings: for α half life: Table 4 summary; for α Phase Clearance (%) / α Phase Half-life / β Phase Clearance (%) / β Phase Half-life (hr) / β Phase Half-life (min): tail vein injection, bi-exponential fit
Method: The pharmacokinetics of DX-890 and the PEGylated DX-890 compounds were measured by iodinating the proteins on available tyrosine residues and measuring their clearance in mice.
Samples were radio-iodinated by the indirect method using the IODO-GEN reagent (method from Pierce Chem. Co., and first described by Chizzonite [J Immunol 147, 1548-1556, 1991; J. Immunol 148, 3117-3124, 1992]). Samples were incubated with the ^125I-NaI solution for 9 min at which time tyrosine (10 mg/mL, a saturated solution) was added to quench the reaction. After about 15 min a 5 μl aliquot was removed as a standard for counting.
For each labeling reaction, the ^125I-labeled material (approx. 0.6 mL) was purified using a single 5 mL D-salt 1800 polyacrylamide column (Pierce Chem. Co.). […] Samples were applied in and columns were eluted with a series of 0.3 mL aliquots. Recovery of applied activity in all protein fractions was >75% and the total recovery of applied activity was >90%. The fractions containing peak levels of labeled protein were pooled for animal injections. To prepare the injectate, the pool was diluted with Tris buffer (pH 7.5) so that the 100 μL injection volume contained about 10 μg of labeled material.
Time of injection and time of sampling were recorded. At sacrifice, samples of 0.5 ml were collected into anticoagulant (0.02 ml EDTA). Cells were spun down and separated from plasma, and cells were stored at −20° C. Plasma was divided into two aliquots, one frozen and one stored at 4° C. for immediate analysis. Analysis included gamma counting of all samples. In addition, analysis was performed for two plasma samples (N=2) at each time point, i.e., 0, and 30 minutes, for ^125I-DX-890, and 0, 30 minutes, and 24 h for the ^125I-DX-890-PEG conjugates. A SEC-HPLC Superose-12 column was used with an in-line radiation detector (FIGS. 4-7).
The solid curves through the sets of data plotted in FIG. 3 are four-parameter, least-squares fits of Equation 3 to the data. Table 3 presents the values for % α Phase, α Phase Half-life, % β Phase, and β Phase Half-life extracted from the least squares fits to the in vivo clearance data set obtained for each of the four compounds tested in mice.

[2] = target: T1, human neutrophil elastase (HNE); assay: Ki measurement: tight-binding inhibition of HNE, fluorogenic substrate hydrolysis; assay type: biochemical
Method: (§1) Equilibrium inhibition constants for the PEGylated DX-890 samples were determined according to the tight-binding inhibition model with formation of a reversible complex (1:1 stoichiometry). Reactions were set up with 100 pM enzyme and a range of inhibitor concentrations (0-4 nM) at 30° C. in 50 mM HEPES, pH 7.5, 150 mM NaCl, and 0.1% Triton X-100. Following a 24 h incubation, substrate was added (25 μM) to the enzyme-inhibitor solution and the rate of substrate hydrolysis monitored at an excitation of 360 nm and an emission of 460 nm. Plots of the percent remaining activity versus active inhibitor concentration were fit by nonlinear regression analysis to Equation 1 to determine equilibrium dissociation constants. Both the Dyax DX-890 reference lot 00B16 and the DX-890 used for PEGylations, NBG2016/9 were analyzed for comparison. [formula] Where: • % A=percent activity • I=DX-890 • E=HNE concentration • Ki=equilibrium inhibition constant

[3] = Pharmacokinetic study in rabbits: plasma clearance of 125I-labeled protein, SEC of plasma; assay type: in vivo, New Zealand White rabbits
Method: Pharmacokinetic properties of DX-890 and PEG-30-DX-890 (conjugation at pH 7.4) were measured by iodinating the proteins and measuring clearance of the radiolabel from circulation in rabbits. The two DX-890 preparations were iodinated with iodine-125 using the iodogen method. After radiolabeling, the two labeled protein preparations were purified from unbound label by size exclusion chromatography (SEC). Fractions from the SEC column having the highest radioactivity were pooled. The purified, radiolabeled preparations were characterized for specific activity by gamma counting and for purity by SEC using a Superose-12 column equipped with an in-line radiation detector.
New Zealand White rabbits (ca. 2.5 Kg) were used for clearance measurements, with one animal used for each of the two labeled protein preparations. The radiolabeled preparation was injected into the animal via an ear vein. One blood sample was collected per animal per time point with early time points at approximately 0, 2.5, 5, 7, 15, 30, 60, and 90 minutes post injection and later time points at 4, 8, 16, 24, 30, 48, 72, 96, 144, 168, and 192 hours post injection. Samples (about 0.5 mL) were collected into anticoagulant (EDTA) containing tubes. Cells were separated from the plasma fraction by centrifugation. The plasma fraction was divided into two aliquots. One plasma aliquot was stored at −70° C. and the other aliquot was kept at 4° C. for immediate analyse's. Sample analyses included radiation counting for clearance rate determinations and SEC chromatography to test for changes in the size distribution of radiolabeled material in vivo (stability).

[4] = target: T2, human neutrophil elastase; assay: enzyme inhibition, tight-binding model; 100 pM hNE (summary table, repeats Table 3)
Method: as §1, with “comparison.” for “comparison. [formula] Where: • % A=percent activity • I=DX-890 • E=HNE concentration • Ki=equilibrium inhibition constant”

[5] = target: T2, human neutrophil elastase; assay: enzyme inhibition, tight-binding model; 100 pM hNE, 0-4 nM inhibitor, 24 h incubation at 30 C, fluorogenic substrate
Method: as §1, with “comparison.” for “comparison. [formula] Where: • % A=percent activity • I=DX-890 • E=HNE concentration • Ki=equilibrium inhibition constant”

[6] = target: T2, human neutrophil elastase; assay: enzyme inhibition, tight-binding model; 100 pM hNE; reference native DX-890
Method: as §1, with “comparison.” for “comparison. [formula] Where: • % A=percent activity • I=DX-890 • E=HNE concentration • Ki=equilibrium inhibition constant”

[7] = ear vein injection, bi-exponential fit

Row | Molecule | Ki [4] | Ki [5] | α Phase Clearance (%) [1] | α Phase Half-life [1] | β Phase Clearance (%) [1] | β Phase Half-life (hr) [1] | β Phase Half-life (min) [1] | also measured
1 | PEG20-DX-890-6.0: DX-890 conjugated to a 20 kDa PEG moiety (MPEG-SPA20K, conjugated at pH 6), mono-PEGylated (EACNLPIVRGPCIAFFPRWAFDAVKGKCVLFPYGGCQGNGNKFYSEKECREYCGVP) |  |  | 53% | 0.278 h | 47% | 4.9 h | 296 min | α half life [1]: 0.25 h
2 | PEG20-DX-890-7.4: DX-890 conjugated to a 20 kDa PEG moiety (MPEG-SPA20K, conjugated at pH 7.4), mono-PEGylated (EACNLPIVRGPCIAFFPRWAFDAVKGKCVLFPYGGCQGNGNKFYSEKECREYCGVP) |  |  | 58% | 0.417 h | 42% | 5.1 h | 307 min | 
3 | PEG30-DX-890-6.0: DX-890 conjugated to a 30 kDa PEG moiety (MPEG-SPA30K, conjugated at pH 6), mono-PEGylated (EACNLPIVRGPCIAFFPRWAFDAVKGKCVLFPYGGCQGNGNKFYSEKECREYCGVP) |  |  | 33% | 0.32 h | 67% | 8.4 h | 505 min | β phase half life [1]: about 8 hr; α half life [1]: 0.317 h
4 | PEG30-DX-890-7.4: DX-890 conjugated to a 30 kDa PEG moiety (MPEG-SPA30K, conjugated at pH 7.4), mono-PEGylated (EACNLPIVRGPCIAFFPRWAFDAVKGKCVLFPYGGCQGNGNKFYSEKECREYCGVP; not fully specified) |  |  |  |  |  |  |  | Ki relative to native DX-890 [2]: twice; fraction of total material in the slow clearance portion relative to unmodified DX-890 [3]: nearly doubles; in vivo half-life [3]: about 3 days; increase of T1/2β versus unmodified protein [3]: about 25 fold; time label remains stably associated with injectate peaks ([3]; SEC analysis of plasma samples): at least 72 hours; % α [3, 7]: 55%; % β [3, 7]: 45%; T1/2α [3, 7]: 2.73 h; T1/2β [3, 7]: 69.23 h; relative levels of circulating radiolabel versus unmodified protein ([3]; one day post injection): more than 100 fold
5 | DX-890 (designed binder, disulfide (positions not given here); also: three intramolecular disulfides, pairing not given here, 56 aa, three intramolecular disulfides; also called EPI-hNE4; Native DX-890) EACNLPIVRGPCIAFFPRWAFDAVKGKCVLFPYGGCQGNGNKFYSEKECREYCGVP | 7 pM | 7 pM |  |  |  |  |  | 
6 | DX-890 conjugated to a 20 kDa PEG moiety (conjugated at pH 6) (designed binder, single 20 kDa mPEG (MPEG-SPA20K) attached, mono-PEGylated; reaction at pH 6.0, headed 'N-Terminal-Site Modification', also called PEG20-DX-890-6.0; +20K PEG, pH 6) EACNLPIVRGPCIAFFPRWAFDAVKGKCVLFPYGGCQGNGNKFYSEKECREYCGVP | 7 pM | 7 pM |  |  |  |  |  | 

Continued, in another order:

Row | Ki [4] | Ki [5] | Molecule | α Phase Clearance (%) [1] | α Phase Half-life [1] | β Phase Clearance (%) [1] | β Phase Half-life (hr) [1] | β Phase Half-life (min) [1] | also measured
7 | 8 pM | 8 pM | DX-890 conjugated to a 20 kDa PEG moiety (conjugated at pH 7.4) (designed binder, single 20 kDa mPEG (MPEG-SPA20K) attached, mono-PEGylated; reaction at pH 7.4, headed 'Random-Site Modification' (site not determined), also called PEG20-DX-890-7.4; +20K PEG, pH 7.4) EACNLPIVRGPCIAFFPRWAFDAVKGKCVLFPYGGCQGNGNKFYSEKECREYCGVP |  |  |  |  |  | 
8 | 8 pM | 8 pM | DX-890 conjugated to a 30 kDa PEG moiety (conjugated at pH 6) (designed binder, single 30 kDa mPEG (MPEG-SPA30K) attached, mono-PEGylated; reaction at pH 6.0, headed 'N-Terminal-Site Modification', also called PEG30-DX-890-6.0; +30K PEG, pH 6) EACNLPIVRGPCIAFFPRWAFDAVKGKCVLFPYGGCQGNGNKFYSEKECREYCGVP |  |  |  |  |  | 
9 | 16 pM | 16 pM | DX-890 conjugated to a 30 kDa PEG moiety (conjugated at pH 7.4) (designed binder, single 30 kDa mPEG (MPEG-SPA30K) attached, mono-PEGylated; reaction at pH 7.4, headed 'Random-Site Modification' (site not determined), also called PEG30-DX-890-7.4; +30K PEG, pH 7.4) EACNLPIVRGPCIAFFPRWAFDAVKGKCVLFPYGGCQGNGNKFYSEKECREYCGVP |  |  |  |  |  | fold Ki relative to native DX-890 [6]: 2 fold
